Where two headings read alike, the source gives them in different places.
Legend:
[1] = system: WEHI-164 fibrosarcoma; experiment: Low-dose treatment in subcutaneous WEHI-164 fibrosarcoma murine model; assay type: in vivo
Experimental: FIG. 14. […] Balb/c mice (6-7 weeks old, weighing 18-20 g) were injected, s.c., with 1.5×10^6 WEHI-164 cells in the left flank and treated 5 days after tumor implantation (i.p.) with 25 or 50 pg of murine NGR-TNF or S-NGR-TNF in 0.9% sodium chloride, containing 100 µg/ml endotoxin-free human serum albumin (arrows). A) Tumor volumes after treatment (mean±SE, 6 mice per group). B) Tumor weight at day 15 (cumulative data of the two groups treated with 25 and 50 pg of drugs). *, P<0.05, **P<0.01 by unpaired t test of the area under the curve for each tumor (GraphPad Prism software).
To assess whether the addition of the Ser residue to NGR-TNF might affect its anti-tumor activity at low dose, inventors then analyzed the therapeutic activity of NGR-TNF and S-NGR-TNF (25 or 50 pg, i.p.) using the subcutaneous WEHI-164 fibrosarcoma murine model.

[2] = system: GL261 glioblastoma; assay type: in vivo, mice; settings: i.p., 5 ng/kg at day 7, 19 and 31
Excerpt: Effect of S-NGR-mTNF on the […] glioblastoma growth and animal body weight. C57BL/6J mice (9 weeks old, weighing 18-21 g) were intracranially implanted with 2.5 × 10^4 GL21-Luc2 cells.
C) Kaplan-Maier curves of vehicle and S-NGR-mTNF.
Inventors next investigated the antitumor activity of murine S-NGR-TNF (S-NGR-mTNF) in the GL261 glioblastoma model, one of the most frequently used syngeneic murine glioma models. To this aim, inventors have exploited GL261 cells genetically engineered to express luciferase (GL261-luc2). This allows in vivo visualization of tumors growth and response to treatment within the brain by bioluminescence imaging.

[3] = system: GL261 glioblastoma
Experimental: Mice bearing GL21-Luc2 glioblastomas (9-10 per group) were treated at day 7, 14 and 21 after tumor implantation with the S-NGR-mTNF (5 ng/kg, about 100 pg/mouse, i.p.). Two hours later, mice were injected with the indicated dose of doxorubicin (doxo, i.p.). […] Tumor growth was monitored by measuring the tumor-associated bioluminescence at day 7, 11, 14, 18, 21, and 28 after the administration of luciferin.
Bioluminescent murine glioma GL21-Luc2 cells, engineered to stably express the firefly luciferase, were orthotopically implanted in C57BL/6J mice (9 weeks-old) into the right striatum (2.5x10^4 cells/mouse). Pharmacological treatments started on the 7 days after tumor cell implantation. Mice were injected, i.p., with 5 ng/Kg dose of S-NGR-TNF (about 100 pg/mice, diluted in 0.9% sodium chloride solution containing 100 µg/ml of HSA), or in combination with doxorubicin (5 mg/Kg) administered 2 h later. Tumor growth was monitored by non-invasive bioluminescence imaging using a PhotonImager RT system (Biospace Lab, France) after luciferase substrate administration (i.p.).
The antitumor activity of S-NGR-mTNF was then investigated in combination of doxorubicin (doxo), a chemotherapeutic drug, in the GL261-luc2 model. To this aims, tumor bearing-animal were treated at day 7, 14 and 21 post tumor implantation with S-NGR-mTNF (5 ng/kg, i.p.) and 2 h later with doxo (i.p., 5 mg/kg, corresponding to about 100 µg/mouse). In parallel, control mice were treated with vehicle or doxo alone.

[4] = system: RMA-T lymphoma-bearing mice; assay type: in vivo; settings: high dose 2 µg and 6 µg
Experimental: FIG. 13. […] A) Effect of high-dose murine S-NGR-TNF or NGR-TNF on the body weight and tumor volume of RMA-T lymphoma- bearing mice. Six C57BL/6 mice (6-7 weeks old, weighing 18-20 g) were challenged with subcutaneous injection in the left flank of 5 ×10^4 RMA-T cells. Mice bearing RMA lymphomas (6 per group) were treated at day 11 after tumor implantation with 2 µg and 6 µg of murine NGR-TNF or S-NGR-TNF in 0.9% sodium chloride, containing 100 µg/ml endotoxin-free human albumin (i.p.) as indicated (arrows). Animal weights and tumor growth were monitored as indicated. B) Effect of melphalan alone or in combination with low-dose murine S-NGR-TNF on the body weight of RMA-T lymphoma-bearing mice.
To assess the impact of the additional serine residue added to the N-terminus of NGR-TNF on its toxicity and anti-tumor activity inventors injected high-dose NGR-TNF or S-NGR-TNF to mice bearing subcutaneous RMA-T lymphomas (n=6) and evaluated the loss of animal weight. […] Three days later the mice regained the original weight.

[5] = system: L-M cells; experiment: LM-cells cytolytic assay (MTT); assay type: cell-based; settings: actinomycin D, 20 h, murine proteins
Excerpt: FIG. 8. Biochemical and biological characterization of murine S-NGR-TNF and NGR-TNF. A) SDS-PAGE under reducing (βMe +) and non-reducing conditions (βMe -) of murine S-NGR-TNF, NGR-TNF and TNF. Arrows: bands corresponding to monomeric subunits (mon) and reducible dimers (dim). B) Representative mass spectra of murine NGR-TNF, TNF and S-NGR-TNF as determined by a Q Exactive HF mass spectrometer. Expected average masses are shown. C) Cytotoxic activity of TNF, NGR-TNF and S-NGR-TNF against L-M cells. L-M cells were incubated in DMEM medium supplemented with 2 mM glutamine, 100 U/ml penicillin, 100 µg/ml streptomycin, 0.25 µg/ml amphotericin-B, 10% fetal bovine serum, 2 µg/ml actinomycin D and TNF, NGR-TNF or S-NGR-TNF at the indicated doses (20 h at 37° C., 5% CO2). Cell viability was quantified by standard 3-(4,5-dimethylthiazol-2-yl)-2,5-diphenyltetrazolium bromide (MTT) assay. D) Binding of TNF, NGR-TNF and S-NGR-TNF to sTNF-R1 (Etanercept). Microtiterplates were precoated with or without the indicated amount of sTNF-R1 (for 16 h), washed with PBS, blocked with PBS containing 3% milk, 1% BSA (binding buffer, 1 h) and incubated with the indicated amounts of TNF, NGR-TNF or S-NGR-TNF diluted in binding buffer (for 1.5 h). The binding of each protein to sTNF-R1 was then detected using a polyclonal anti-murine TNF (IP301, 5 µg/ml in binding buffer, 1 h) followed by a polyclonal goat anti-rabbit antibody conjugated with horseradish peroxidase (1:1000 in binding buffer, 1 h) and o-phenylendiammine as chromogenic substrate.
To assess whether the addition of a serine residue to NGR-TNF affects its capability to recognize the TNF receptors and, consequently, its biological activity, inventors then analyzed the cytotoxic activity of TNF, NGR-TNF and S-NGR-TNF in the LM-cells cytolytic assay.

[6] = system: endothelial EA.hy926 cells; experiment: EA.hy926 endothelial cell adhesion assay on protein-coated microtiterplates; assay type: cell-based
Experimental: FIG. 12. […] A) Adhesion of endothelial EA.hy926 cells to 96-wells microtiterplates coated with different amounts of murine TNF, NGR-TNF and S-NGR-TNF in 150 mM sodium chloride, 50 mM sodium phosphate buffer, pH 7.4 (PBS) (16 h). Each well was blocked with 2% BSA in PBS containing calcium chloride and magnesium chloride (DPBS, 30 min), seeded with 40.000 endothelial EA.hy926 cells in DPBS supplemented with 0.1% BSA (DPBS-B), and left to incubate for 2 h at 37° C., 5% CO2. After washing with DMEM-B, adherent cells were stained with crystal violet and quantified by spectrophotometric measurements at 570 nm. B) Microtiterplates pre-coated with 1 µg/ml of murine NGR-TNF or S-NGR-TNF in PBS (for 16 h) were incubated 0.1 M ammonium bicarbonate buffer, pH 8.5 (Ambic) at 37° C. for the indicated time to promote NGR deamidation. EA.hy926 cell adhesion assay was then performed as described above.
This behavior likely reflects a further improvement in the CNGRCG (SEQ ID NO: 1) stability when fused to TNF.

[7] = system: RMA lymphoma; assay type: in vivo, mice
Experimental: FIG. 15. […] C57BL/6 mice (6-7 weeks old, weighing 18-20 g) were challenged with subcutaneous injection in the left flank of 7×10^4 RMA cells. Mice bearing RMA lymphomas (6 per group) were treated 10-11 days (after tumor implantation with 100 pg of murine NGR-TNF or S-NGR-TNF (i.p.). Two hours later, the mice were injected with the indicated dose of melphalan (i.p.). All proteins were diluted with 0.9% sodium chloride, containing 100 µg/ml endotoxin-free human albumin. Tumor growth was monitored daily by measuring the tumors with calipers. A-B) Tumor volume change of two independent experiments are shown (mean±SE). […] C) Tumor bearing-animals were treated at day 10 after tumor implantation as indicated above using the indicated dose of S-NGR-TNF and the generic preparation of melphalan (Melphalan-Tillomed, from Tillomed Italia). RMA tumor weight at day 20 are shown (mean±SE). *, P<0.05, **P<0.01 by unpaired t test analysis with the GraphPad Prism software.
Effect of melphalan alone or in combination with low-dose murine S-NGR-TNF on the body weight and tumor growth of RMA-T lymphoma-bearing mice. Six tumor-bearing mice were injected with the indicated doses of S-NGR-TNF (i.p) and, two hours later, with the generic preparation of melphalan (Melphalan-Tillomed) (i.p.).
Finally, to assess whether low-dose S-NGR-TNF can exert synergistic effects with chemotherapy, as previously observed for NGR-TNF, inventors performed in vivo experiments with S-NGR-TNF and NGR-TNF in combination with melphalan, a chemotherapeutic drug, using the murine RMA lymphoma model (FIG. 15).

B1: S-NGR-TNF: Murine SCNGRCG-TNF fusion protein: serine residue added to the N-terminus of NGR-TNF (SEQ ID NO: 26) (protein)
chain: SCNGRCGLRSSSQNSSDKPVAHVVANHQVEEQLEWLSQRANALLANGMDLKDNQLVVPADGLYLVYSQVLFKGQGCPDYVLLTHTVSRFAISYQEKVNLLSAVKSPCPKDTPEGAELKPWYEPIYLGGVFQLEKGDQLSAEVNLPKYLDFAESGQVYFGVIAL
anti-tumor effects compared to 25 pg of NGR-TNF ([1]; 25 pg): slightly stronger anti-tumor effects | toxicity ([1]; 25 or 50 pg, i.p.): No evidence of toxicity | tumor growth ([1]; 25 or 50 pg, i.p.): delayed tumor growth to similar extent | gain of body weight of cured animals [2]: about +15% | tumor growth [2]: significantly delayed tumor growth | mice with delayed tumor growth ([3]; S-NGR-mTNF 5 ng/kg i.p. and 2 h later doxo 5 mg/kg, day 7, 14, 21): 55% | toxicity of doxo, judged from loss of animal weight ([3]; S-NGR-mTNF 5 ng/kg with doxo 5 mg/kg): did not exacerbate the toxicity of doxo | tumor growth ([3]; S-NGR-mTNF 5 ng/kg with doxo 5 mg/kg (combination therapy)): could significantly delay tumor growth | antitumor effects compared to NGR-TNF [4]: slightly stronger antitumor effects | EC50 cytotoxic activity [5]: very similar | EA.hy926 cell adhesion to coated plates ([6]; plates coated in PBS, no forced deamidation): not | EA.hy926 cell adhesion after forced deamidation ([6]; plates treated with 0.1 M ammonium bicarbonate buffer, pH 8.5, compared to NGR-TNF): a longer time of incubation under deamidation conditions was necessary | efficacy of melphalan in combination ([7]; 100 pg i.p., melphalan two hours later): could enhance the efficacy of melphalan | antitumor activity of combination ([7]; S-NGR-TNF 100 pg with melphalan 50 µg): significant increase of antitumor activity | antitumor effect compared to NGR-TNF ([7]; in combination with melphalan): slightly stronger antitumor effect
